Assay results from patent publication US7005283B2, “Cytochrome P450 oxygenases and their uses” (Washington State University Research Foundation, priority 1999, dated 2006).

Tests used:
[1] = In vitro enzyme assay for taxoid oxygenase activity (baculovirus-Spodoptera expressed enzyme), substrate taxadienol; assay type: biochemical, Spodoptera frugiperda
Protocol: The standard enzyme assay for assessing oxygenase activity of the recombinant cytochrome P450 employed the following conditions: 25 mM HEPES buffer, pH 7.5, 400 μM NADPH, 300 μg protein and 30 μM substrate (taxadiene, taxadienol, or taxadienyl acetate) in a total volume of 1 mL. Samples were incubated at 32° C. for 12 hours, after which 1 mL of saturated NaCl solution was added to the reaction mixture, followed by extraction of the product with 2 mL of hexane/ethyl acetate (4:1, v/v). The extracts were dried and dissolved in acetonitrile for product analysis by radio-HPLC [column: Alltech Econosil C18 5 μm particle size (250 mm×4.6 mm): solvent system A: 0.01% (v/v) H3PO4, 2% acetonitrile, 97.99% H2O; solvent system B: 0.01% H3PO4, 99.99 acetonitrile; gradient: 0–5 minutes, 100% A; 5–15 minutes, 0–50% B; 15–55 minutes, 50–100% B; 55–65 minutes, 100% B; 65–70 minu A; 70–75 minutes, 100% A; flow rate 1 mL/minute; for detection, a radio-chromatography detector (Flow-One®-Beta Series A-100, Radiomatic) was used].
For the functional characterization of clone F16, the recombinant baculovirus carrying the cytochrome P450 clone F16 ORF was coexpressed with a recombinant baculovirus carrying the Taxus NADPH:cytochrome P450 reductase gene. To the insect cell suspension, the two recombinant baculoviruses were added at a multiplicity of infection of 1–5. The viral titers were determined according to the End-Point Dilution method (O'Reilly et al., Baculovirus Expression Vectors, A Laboratory Manual, New York, N.Y., Freeman and Company, 1992). For infection, the cells were incubated for 1 hour at 28° C. and 80 rpm. The cell culture volume was brought to 50 mL with standard cell culture medium, and hemin (Sigma) was added to a final concentration of 2 μg/mL. The infected cells were incubated for 48 hours in a gyratory shaker at 28° C. and 140 rpm. The infected insect cells were harvested from the cell culture medium by centrifugation as described above, and washed twice with PBS (50 mM KH2PO4, pH 7.5, 0.9% NaCl). […]

[2] = In vitro enzyme assay for taxoid oxygenase activity (baculovirus-Spodoptera expressed enzyme), substrate taxadiene; assay type: biochemical, Spodoptera frugiperda; settings: 30 μM substrate, 32° C., 12 hours
Protocol: The standard enzyme assay for assessing oxygenase activity of the recombinant cytochrome P450 employed the following conditions: 25 mM HEPES buffer, pH 7.5, 400 μM NADPH, 300 μg protein and 30 μM substrate (taxadiene, taxadienol, or taxadienyl acetate) in a total volume of 1 mL. Samples were incubated at 32° C. for 12 hours, after which 1 mL of saturated NaCl solution was added to the reaction mixture, followed by extraction of the product with 2 mL of hexane/ethyl acetate (4:1, v/v). […]
For the functional characterization of clone F16, the recombinant baculovirus carrying the cytochrome P450 clone F16 ORF was coexpressed with a recombinant baculovirus carrying the Taxus NADPH:cytochrome P450 reductase gene. […] The viral titers were determined according to the End-Point Dilution method (O'Reilly et al., Baculovirus Expression Vectors, A Laboratory Manual, New York, N.Y., Freeman and Company, 1992). […]

[3] = In vivo assay of yeast cells expressing recombinant oxygenases, radio-HPLC, substrate taxadiene; assay type: cell-based, Saccharomyces cerevisiae; settings: assayed with Taxadiene; graded symbols, key not given
[4] = assay type: binding, Saccharomyces cerevisiae
Summary of the method: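 Full-length Taxus cytochrome P450 clones in pYeDP60 were expressed in yeast, with induction by galactose (10% final) for about 24 h. Whole cells were treated with CO, and CO-difference spectra were recorded spectrophotometrically against untreated cells.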

B1: clone F16: Taxus cuspidata cytochrome P450 taxane 9α-hydroxylase, full-length clone, SEQ ID NO: 82 (nt) / 88 (aa) (protein, listed as Taxus cuspidata)
chain: MDALKQLEVSPSILFVTLAVMAGIILFFRSKRHSSVKLPPGNLGFPLVGETLQFVRSLGSSTPQQFIEERMSKFGDVFKTSIIGHPTVVLCGPAGNRLVLSNENKLVQMSWPSSMMKLIGEDCLGGKTGEQHRIVRAALTRFLGPQALQNHFAKMSSGIQRHINEKWKGKDEATVLPLVKDLVFSVASRLFFGITEEHLQEQLHNLLEVILVGSFSVPLNIPGFSYHKAIQARATLADIMTHLIEKRRNELRAGTASENQDLLSVLLTFTDERGNSLADKEILDNFSMLLHGSYDSTNSPLTMLIKVLASHPESYEKVAQEQFGILSTKMEGEEIAWKDLKEMKYSWQVVQETLRMYPPIFGTFRKAITDIHYNGYTIPKGWKLLWTTYSTQTKEEYFKDADQFKPSRFEEEGKHVTPYTYLPFGGGMRVCPGWEFAKMETLLFLHHFVKAFSGLKAIDPNEKLSGKPLPPLPVNGLPIKLYSRS
[1]; 30 μM substrate, 32° C., 12 hours, GC-MS
  conversion of taxa-4(20),11(12)-dien-5α-ol: converted most efficiently to a diol product
[1]; baculovirus-Spodoptera expression
  enzyme function assigned from screening: cytochrome P450 taxane-9α-hydroxylase
[1]; preparative incubation, 1H- and 13C-NMR
  identity of the product of the oxygenase reaction with taxadienol: taxa-4(20),11(12)-dien-5α,9α-diol
[2]
  conversion of taxadiene to an oxygenated product: not converted detectably
[3]
  product identified HPLC peak: No
[4]
  CO diff. spec.: +++
